# Changes are numbered by the printed parent chain. In names and notes the source's numbering stands.
# B1: S188T (protein)
# chain: MQLRNPELHLGCALALRFLALVSWDIPGARALDNGLARTPTMGWLHWERFMCNLDCQEEPDSCISEKLFMEMAELMVSEGWKDAGYEYLCIDDCWMAPQRDSEGRLQADPQRFPHGIRQLANYVHSKGLKLGIYADVGNKTCAGFPGSFGYYDIDAQTFADWGVDLLKFDGCYCDSLENLADGYKHMTLALNRTGRSIVYSCEWPLYMWPFQKPNYTEIRQYCNHWRNFADIDDSWKSIKSILDWTSFNQERIVDVAGPGGWNDPDMLVIGNFGLSWNQQVTQMALWAIMAAPLFMSNDLRHISPQAKALLQDKDVIAINQDPLGKQGYQLRQGDNFEVWERPLSGLAWAVAMINRQEIGGPRSYTIAVASLGKGVACNPACFITQLLPVKRKLGFYEWTSRLRSHINPTGTVLLQLENTMQMSLKDLL
# B2: S188Y (protein)
# chain: B1 chain with T188Y
# B3: L189S (protein)
# chain: B1 chain with T188S, L189S
# B4: L189V (protein)
# chain: B1 chain with T188S, L189V
# B5: A190D (protein)
# chain: B1 chain with T188S, A190D
# B6: A190G (protein)
# chain: B1 chain with T188S, A190G
# B7: A190S (protein)
# chain: B1 chain with T188S, A190S
# B8: A190T (protein)
# chain: B1 chain with T188S, A190T
# B9: A190V (protein)
# chain: B1 chain with T188S, A190V
# B10: L191M (protein)
# chain: B1 chain with T188S, L191M
# B11: L191V (protein)
# chain: B1 chain with T188S, L191V
# B12: N192D (protein)
# chain: B1 chain with T188S, N192D
# B13: N192H (protein)
# chain: B1 chain with T188S, N192H
# B14: L286F (protein)
# chain: B1 chain with T188S, L286F
# B15: L286H (protein)
# chain: B1 chain with T188S, L286H
# B16: L286V (protein)
# chain: B1 chain with T188S, L286V
# B17: A288G (protein)
# chain: B1 chain with T188S, A288G
# B18: A288S (protein)
# chain: B1 chain with T188S, A288S
# B19: A288V (protein)
# chain: B1 chain with T188S, A288V
# B20: I289L (protein)
# chain: B1 chain with T188S, I289L
# B21: I289T (protein)
# chain: B1 chain with T188S, I289T
# Test system: mutant form of α-Gal A expressed in HEK-293 cells
# Test: HEK assay (GLP HEK / Migalastat Amenability Assay): α-Gal A activity in lysates of transiently transfected HEK-293 cells incubated with or without 10 μM migalastat
# Type: cell-based, human
# Settings: 10 μM migalastat versus baseline
# Procedure, shortened: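 Activity reported as 4-MU released (nmol/mg/hr), mean±SEM, from lysates of transiently transfected HEK-293 cells expressing mutant α-Gal A, cultured with or without 10 μM migalastat.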
Molecule,Absolute increase (% WT),Relative increase
B1,24.0,
B2,31.5,
B3,20.1,
B4,20.2,
B5,26.9,
B6,27.4,
B7,26.1,
B8,30.7,
B9,41.2,
B10,41.7,
B11,39.1,
B12,55.6,
B13,16.4,
B14,23.2,1.4
B15,15.4,22.2
B16,32.9,1.4
B17,19.9,1.4
B18,25.8,1.2
B19,31.7,1.4
B20,27.5,1.3
B21,36.7,2.0

# Same assay, conditions: 10 μM migalastat α-Gal A activity relative to baseline
row,Molecule,Relative increase
1,B1,1.5
2,B2,2.0
3,B3,1.3
4,B4,1.3
5,B5,2.2
6,B6,1.4
7,B7,1.3
8,B8,2.1
9,B9,2.2
10,B10,1.8
11,B11,1.6
12,B12,3.2
13,B13,2.8

# Same assay, conditions: 10 μM migalastat, 5 days; percentage of baseline wild-type α-Gal A activity; mean ± SEM
row,Molecule,10 μM migalastat α-Gal A activity (% WT)
1,B1,69.5 ± 4.5
2,B2,64.1 ± 3.5
3,B3,92.7 ± 3.2
4,B4,100.1 ± 3.9
5,B5,49 ± 3.4
6,B6,97.9 ± 9.8
7,B7,110.6 ± 5.5
8,B8,57 ± 1.9
9,B9,77.9 ± 9.5
10,B10,100.2 ± 9.8
11,B11,110.2 ± 7.9
12,B12,81.5 ± 6.7
13,B13,24.9 ± 3

# Same assay, conditions: absence of migalastat; percentage of baseline wild-type α-Gal A activity; mean ± SEM
row,Molecule,Baseline α-Gal A activity (% WT)
1,B1,45.4 ± 2.5
2,B2,32.6 ± 2.6
3,B3,72.6 ± 3.1
4,B4,79.9 ± 5.1
5,B5,22.1 ± 1
6,B6,70.5 ± 7.3
7,B7,84.5 ± 3.2
8,B8,26.3 ± 2
9,B9,36.8 ± 5.1
10,B10,58.4 ± 6.6
11,B11,71.1 ± 4.7
12,B12,25.9 ± 3
13,B13,8.6 ± 1.1
14,B14,64.5 ± 2.8
15,B15,0.8 ± 0.1
16,B16,66 ± 5.1
17,B17,56.8 ± 6.3
18,B18,114.6 ± 10.6
19,B19,82.5 ± 9
20,B20,96.9 ± 10.5
21,B21,38.6 ± 4.8

# Same assay, conditions: lysates of HEK-293 cells transfected with the mutant form, incubated 5 days in the absence of migalastat; mean ± SEM
row,Molecule,Baseline α-Gal A activity [nmol/mg/h]
1,B1,17041 ± 1389
2,B2,12244 ± 1167
3,B3,23204 ± 1213
4,B4,25544 ± 1758
5,B5,7141 ± 423
6,B6,24299 ± 2173
7,B7,27316 ± 1369
8,B8,8600 ± 733
9,B9,12542 ± 1642
10,B10,19968 ± 2010
11,B11,24068 ± 1533
12,B12,9035 ± 886
13,B13,3103 ± 402

# Same assay, conditions: lysates of HEK-293 cells transfected with the mutant form, incubated 5 days with 10 μM migalastat; mean ± SEM
row,Molecule,10 μM migalastat α-Gal A activity [nmol/mg/h]
1,B1,26198 ± 2461
2,B2,23849 ± 1725
3,B3,29510 ± 1181
4,B4,32031 ± 1633
5,B5,15887 ± 1308
6,B6,34126 ± 2992
7,B7,35787 ± 2235
8,B8,18373 ± 795
9,B9,27078 ± 2910
10,B10,34977 ± 3072
11,B11,37342 ± 2569
12,B12,28923 ± 1892
13,B13,8765 ± 935

# Same assay, conditions: lysates of HEK-293 cells transiently transfected with the mutant form, incubated 5 days in absence of migalastat; mean ± SEM
row,Molecule,Baseline α-Gal A activity [nmol/mg/h]
1,B14,29390 ± 1225
2,B15,359 ± 52
3,B16,28713 ± 3734
4,B17,22208 ± 1755
5,B18,45790 ± 3395
6,B19,32777 ± 3168
7,B20,37941 ± 3208
8,B21,15033 ± 1450

# Same assay, conditions: lysates of HEK-293 cells transiently transfected with the mutant form, incubated 5 days with 10 μM migalastat; mean ± SEM
row,Molecule,10 μM migalastat α-Gal A activity [nmol/mg/h]
1,B14,39732 ± 2859
2,B15,7960 ± 1511
3,B16,41335 ± 3422
4,B17,30458 ± 2381
5,B18,55988 ± 2609
6,B19,45501 ± 4634
7,B20,49640 ± 3368
8,B21,29673 ± 2480

# Same assay, conditions: with 10 μM migalastat, 5 days; percentage of baseline wild-type α-Gal A activity; mean ± SEM
row,Molecule,10 μM migalastat α-Gal A activity (% WT)
1,B14,87.7 ± 7.3
2,B15,16.2 ± 2.5
3,B16,98.9 ± 4.3
4,B17,76.7 ± 7.4
5,B18,140.4 ± 10.5
6,B19,114.2 ± 12.4
7,B20,124.4 ± 11.3
8,B21,75.3 ± 7.9
